Laboratory results as given in paper PMC13038408 (Nature Chemical Biology, 2025).

T1: RSVFV-2 (de novo design (synthetic))
T1 construct: source: E. coli BL21 (DE3), purified (Ni-NTA, SEC)
T1 chain: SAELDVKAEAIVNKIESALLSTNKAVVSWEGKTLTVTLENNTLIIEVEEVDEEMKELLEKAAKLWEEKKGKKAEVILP

T2: RSVFV-4 (de novo design (synthetic))
T2 construct: source: E. coli BL21 (DE3), purified (Ni-NTA, SEC)
T2 chain: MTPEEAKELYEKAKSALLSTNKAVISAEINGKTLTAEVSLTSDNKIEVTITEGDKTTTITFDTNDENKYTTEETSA

T3: RSVFV-3 (de novo design (synthetic))
T3 construct: source: E. coli BL21 (DE3), purified (Ni-NTA, SEC)
T3 chain: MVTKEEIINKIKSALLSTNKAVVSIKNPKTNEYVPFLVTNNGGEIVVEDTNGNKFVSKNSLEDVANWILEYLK

T4: RSVFV-1 (synthetic construct (de novo scaffold …))
T4 construct: also called RSVF-V H6; source: E. coli BL21 (DE3), purified (Ni-NTA, SEC)
T4 chain: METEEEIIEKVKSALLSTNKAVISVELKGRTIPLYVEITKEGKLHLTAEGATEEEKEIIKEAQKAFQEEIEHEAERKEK

T5: RSVF-multi-4 (synthetic construct (de novo design))
T5 construct: also called RSVF-multi-4 WT; source: E. coli BL21 (DE3), purified (Ni-NTA, SEC)
T5 chain: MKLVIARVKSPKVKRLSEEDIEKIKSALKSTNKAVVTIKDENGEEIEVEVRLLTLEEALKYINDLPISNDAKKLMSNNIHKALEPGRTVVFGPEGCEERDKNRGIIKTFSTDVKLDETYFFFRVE

T6: RSVF-multi-3 (de novo design (synthetic))
T6 construct: source: E. coli BL21 (DE3), purified (Ni-NTA, SEC)
T6 chain: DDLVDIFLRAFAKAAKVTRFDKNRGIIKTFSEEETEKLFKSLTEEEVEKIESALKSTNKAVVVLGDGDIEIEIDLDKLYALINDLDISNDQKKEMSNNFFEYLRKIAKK

B1: RSV90 Fab (Fab, V domains shown)
VH: EVQLVESGGGLVQPRRSLRLSCAASGFTFDDYTIHWVRQAPGKGLEWVSGITWNSGYIGYADSVKGRFTISRDNARNSLYLQMNSLRAEDTALYYCVRDAYVSGSDYYYYGLDVWGRGTLVTVSS
VL: EIVMTSSPATLSVSPGERVTLFCRASQSVISNLAWYQQKSGQAPRLLIYGASTRATGIPSRFSGSGSGTEFTLTISSLQSEDFAVYFCQQYNNWPLTFGGGTQVNVQ
notes: also called hRSV90; site-V-specific antibody
B2: Motavizumab IgG (antibody, V domains shown)
VH: QVTLRESGPALVKPTQTLTLTCTFSGFSLSTAGMSVGWIRQPPGKALEWLADIWWDDKKHYNPSLKDRLTISKDTSKNQVVLKVTNMDPADTATYYCARDMIFNFYFDVWGQGTTVTVSS
VL: DIQMTQSPSTLSASVGDRVTITCSASSRVGYMHWYQQKPGKAPKLLIYDTSKLASGVPSRFSGSGSGTEFTLTISSLQPDDFATYYCFQGSGYPFTFGGGTKVEIK
notes: also called site-II-specific antibody

How the values were obtained:
Assay in all cases: SPR
Settings in all cases: both partners purified
[1] = biological target: T1, RSVFV-2
[2] = biological target: T2, RSVFV-4
[3] = biological target: T3, RSVFV-3
[4] = biological target: T4, RSVFV-1
[5] = biological target: T5, RSVF-multi-4
[6] = biological target: T6, RSVF-multi-3

Row | Binder | Kd [1] [nM] | Kd [2] [nM] | Kd [3] [nM] | Kd [4] [nM] | Kd [5] [nM] | Kd [6] [nM]
1 | B1 | 108 | 241 | 94 | 54 |  | 
2 | B2 |  |  |  |  | 14 | 18
